Assay results published in paper PMC10368991, “LolA and LolB from the plant-pathogen Xanthomonas campestris forms a stable heterodimeric complex in the absence of lipoprotein” (Frontiers in Microbiology, 2023).

Biological target: T1, Xanthomonas campestris pv. campestris (Xcc) LolB, periplasmic variant (Xanthomonas campestris pv. campestris …)
T1 chain: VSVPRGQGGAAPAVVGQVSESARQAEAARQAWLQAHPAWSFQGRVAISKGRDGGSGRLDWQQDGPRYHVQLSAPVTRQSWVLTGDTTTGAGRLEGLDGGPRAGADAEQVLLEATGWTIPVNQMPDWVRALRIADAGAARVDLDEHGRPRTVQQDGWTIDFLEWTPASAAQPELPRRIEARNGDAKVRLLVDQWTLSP
Assay: ITC; LolA 1 mM in the syringe, LolB 0.1 (unit inferred) in the cell; 25.0 °C; 20 mM TRIS-HCl pH 7.8, 150 mM NaCl, 5% glycerol; 1:1 binding model; triplicate
Details: both partners purified

B1: Xanthomonas campestris pv. campestris (Xcc) LolA (natural protein)
chain: GARQELDTFTRGLKGLDGQFSQRVTDANGRVKENSSGRVALATPRQFRWEYAKPYKQLIVADGKKVWVFDPDLEQVTVRAQGSEEQNSPLVALIDPTRLDKQYDVSEEAAPRDGLQWLSLTPKVDTDASFQMASLGFGKDGLAKMEVVDAVGQRTAISFSGWKRNPAFAADTFRYTPGKGVDVVGDAQ
Kd: 14.6 ± 1 µM
dH: -6.82 ± 0.126 kJ/mol
stoichiometry N: 0.96 ± 0.04
